In publication PMC5821828, “A Genetic Screen for Investigating the Human Lysosomal CystineTransporter, Cystinosin” (Scientific Reports, 2018):

B1: CTNS WT (human cystinosin with GYDQL motif) (Homo sapiens) (protein)
chain: SVSLTVPPVVKLENGSSTNVSLTLRPPLNATLVITFEITFRSKNITILELPDEVVVPPGVTNSSFQVTSQNVGQLTVYLHGNHSNQTGPRIRFLVIRSSAISIINQVIGWIYFVAWSISFYPQVIMNWRRKSVIGLSFDFVALNLTGFVAYSVFNIGLLWVPYIKEQFLLKYPNGVNPVNSNDVFFSLHAVVLTLIIIVQCCLYERGGQRVSWPAIGFLVLAWLFAFVTMIVAAVGVTTWLQFLFCFSYIKLAVTLVKYFPQAYMNFYYKSTEGWSIGNVLLDFTGGSFSLLQMFLQSYNNDQWTLIFGDPTKFGLGVFSIVFDVVFFIQHFCLYRKRPGYDQLN
notes: full-length, untagged, plasmid p416TEF (TEF-CTNS, ABE 3006), expressed in S. cerevisiae vps1Δvps17Δ; uptake across plasma membrane
B2: CTNS-Δgydql (Homo sapiens; G197R) (protein)
chain: SVSLTVPPVVKLENGSSTNVSLTLRPPLNATLVITFEITFRSKNITILELPDEVVVPPGVTNSSFQVTSQNVGQLTVYLHGNHSNQTGPRIRFLVIRSSAISIINQVIGWIYFVAWSISFYPQVIMNWRRKSVIGLSFDFVALNLTGFVAYSVFNIGLLWVPYIKEQFLLKYPNRVNPVNSNDVFFSLHAVVLTLIIIVQCCLYERGGQRVSWPAIGFLVLAWLFAFVTMIVAAVGVTTWLQFLFCFSYIKLAVTLVKYFPQAYMNFYYKSTEGWSIGNVLLDFTGGSFSLLQMFLQSYNNDQWTLIFGDPTKFGLGVFSIVFDVVFFIQHFCLYRKRP
notes: lacks C-terminal GYDQLN (lysosomal targeting motif; Y363 and L366), untagged, p416TEF (ABE 3513), expressed in S. cerevisiae vps1Δvps17Δ (ABC 5017)
B3: CTNS-Δgydql (Homo sapiens; S270T) (protein)
chain: SVSLTVPPVVKLENGSSTNVSLTLRPPLNATLVITFEITFRSKNITILELPDEVVVPPGVTNSSFQVTSQNVGQLTVYLHGNHSNQTGPRIRFLVIRSSAISIINQVIGWIYFVAWSISFYPQVIMNWRRKSVIGLSFDFVALNLTGFVAYSVFNIGLLWVPYIKEQFLLKYPNGVNPVNSNDVFFSLHAVVLTLIIIVQCCLYERGGQRVSWPAIGFLVLAWLFAFVTMIVAAVGVTTWLQFLFCFTYIKLAVTLVKYFPQAYMNFYYKSTEGWSIGNVLLDFTGGSFSLLQMFLQSYNNDQWTLIFGDPTKFGLGVFSIVFDVVFFIQHFCLYRKRP
notes: as for B2
B4: CTNS-Δgydql (Homo sapiens; G309C) (protein)
chain: SVSLTVPPVVKLENGSSTNVSLTLRPPLNATLVITFEITFRSKNITILELPDEVVVPPGVTNSSFQVTSQNVGQLTVYLHGNHSNQTGPRIRFLVIRSSAISIINQVIGWIYFVAWSISFYPQVIMNWRRKSVIGLSFDFVALNLTGFVAYSVFNIGLLWVPYIKEQFLLKYPNGVNPVNSNDVFFSLHAVVLTLIIIVQCCLYERGGQRVSWPAIGFLVLAWLFAFVTMIVAAVGVTTWLQFLFCFSYIKLAVTLVKYFPQAYMNFYYKSTEGWSIGNVLLDFTGCSFSLLQMFLQSYNNDQWTLIFGDPTKFGLGVFSIVFDVVFFIQHFCLYRKRP
notes: as for B2
B5: CTNS-Δgydql (Homo sapiens; G131S) (protein)
chain: SVSLTVPPVVKLENGSSTNVSLTLRPPLNATLVITFEITFRSKNITILELPDEVVVPPGVTNSSFQVTSQNVGQLTVYLHGNHSNQTGPRIRFLVIRSSAISIINQVISWIYFVAWSISFYPQVIMNWRRKSVIGLSFDFVALNLTGFVAYSVFNIGLLWVPYIKEQFLLKYPNGVNPVNSNDVFFSLHAVVLTLIIIVQCCLYERGGQRVSWPAIGFLVLAWLFAFVTMIVAAVGVTTWLQFLFCFSYIKLAVTLVKYFPQAYMNFYYKSTEGWSIGNVLLDFTGGSFSLLQMFLQSYNNDQWTLIFGDPTKFGLGVFSIVFDVVFFIQHFCLYRKRP
notes: as for B2

What follows are molecules tested on T1, N[C@@H](CSSC[C@H](N)C(=O)O)C(=O)O (assay: cells, lysate or membranes). Conditions: pH 5.5 (MES), 2% glucose, 30 °C, vps1Δvps17Δ yeast, labelled compound.
T1 construct: lacks C-terminal GYDQLN (lysosomal targeting motif; Y363 and L366), untagged, p416TEF (ABE 3513), expressed in S. cerevisiae vps1Δvps17Δ (ABC 5017)
Assay type: cell-based, Homo sapiens

Row | Molecule | Km [µM]
1 | CTNS-Δgydql (Homo sapiens; DEL362-367) | 254.4 ± 61

These molecules were tested on N[C@@H](CSSC[C@H](N)C(=O)O)C(=O)O (assay: cells, lysate or membranes). Conditions: pH 5.5 (MES), 2% glucose, 30 °C, vps1Δvps17Δ yeast, labelled compound.
Assay type: cell-based, Homo sapiens

Row | Molecule | Km [µM]
2 | B1 | 400 ± 133
3 | B2 | 97.3 ± 30.9
4 | B3 | 207.2 ± 41.5
5 | B4 | 124.8 ± 23.5
6 | B5 | 130.4 ± 10.9
